Assay results reported in paper PMC4596477, “Interaction of Myosin Phosphatase Target Subunit (MYPT1) with Myosin Phosphatase-RhoA Interacting Protein (MRIP): A Role of Glutamic Acids in the Interaction” (PLoS ONE, 2015).

Assays:
[1] = molecular target: T1, MRIP^724-878 (Homo sapiens, UniProt Q6WCQ1); assay: AUC interaction of MYPT1 peptides (CC, LR and LR mutants) with MRIP^724-878; type: binding; settings: s*lg(s*) graphs, pH 7.4, 20°C; for main peak position of mixture with MRIP^724-878: excess mutant LR peptide for R992D/R993D and E996K, 50 μM each for others; for binding affinity toward MRIP^724-878, LR mutants: MRIP^724-878 with mutant LR peptide, 50 μM each, compared with wild-type LR
T1 construct: MRIP^724-878 (residues 724–878; CC2-CC4); made in house; host or cells: Escherichia coli BL21 (DE3)
T1 sequence (Q6WCQ1 725-879): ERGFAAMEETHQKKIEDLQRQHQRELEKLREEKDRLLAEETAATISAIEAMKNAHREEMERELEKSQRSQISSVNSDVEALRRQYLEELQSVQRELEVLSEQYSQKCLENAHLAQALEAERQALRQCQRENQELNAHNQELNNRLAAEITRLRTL
Source text: To determine the minimal MRIP-binding region of MYPT1, AUC was employed to examine interactions between sub-domains of CCLR, CC (residues 924–990) and LR (residues 991–1030) with MRIP^724-878 (Fig 4A). CC is the putative coiled coil domain and LR contains 16 upstream amino acid residues (residues 991–1006) in addition to the leucine repeat (residues 1007–1028). MRIP^724-878 was chosen because of its good fit to a single component, single-species model. […] Global fitting of the mixture to a two-component model produced a good fit and the RMSD of the fit was 0.010 (Fig 4B; Fitting of CC).
The coiled coil is a common protein-protein interaction domain. The MRIP peptides in this study have putative coiled coil domains and are α-helical. In contrast, the MYPT1 peptide, LR is not α-helical even though it contains the leucine repeat. Thus, we hypothesized that charged residues of MYPT1 might participate in the MYPT1/MRIP interaction with its leucine residues. We generated various LR peptides representing mutations in charged residues (Fig 6A) and examined their bindings to MRIP^724-878 (Fig 6B).
Fig 6 Glutamic acids within LR enhance the MRIP-binding affinity. (A) Amino acid sequences of the wild-type LR (WT-LR) and mutant LR peptides. Charged residues are in bold, the leucine repeat is in Italic, and substitution mutations are underlined. (B) Time derivative s*lg(s*) graphs: Line, MRIP^724-878 alone (50 μM); filled-in circles, original mixture of MRIP^724-878/each mutant LR peptide (50 μM each except for R992D/R993D and E996K whose mixtures consisted of excess amount of the mutant LR peptides); open circles, a three-fold dilution of the original mixture. The molar mass of the complex differs slightly from that of MRIP^724-878 dimer (37.9 kDa vs 37.4 kDa), and thus the shift in the main peak position is not easily discernable in many cases.
(§1) The cDNA fragment encoding MRIP peptides were amplified using a full-length MRIP cDNA as a template with the following primer pairs: MRIP^545-878, 5’-[…]/5’[…]; MRIP^724-878, 5’-[…]/5’-[…]; MRIP^724-837, 5’-[…]/5’-[…]. The PCR products were ligated into pCR2.1-TOPO using the TA cloning system and sequenced in both directions. The IMPACT™ (Intein Mediated Purification with an Affinity Chitin-binding Tag) Kit (New England BioLabs) was used to express peptides in bacteria to obtain tag-free peptides. The PCR amplicon encoding MRIP peptides were fused in frame to the chitin binding domain of pTYB12 vector utilizing the NdeI/EcoRI restriction sites. The expression vectors for the MYPT1 peptides, CCLR (residues 924–1030), CC (residues 924–990), and LR (residues 991–1030) were constructed as described: In the reference literature, CCLR and LR were named CCLZ and LZ, respectively. Recombinant peptides were produced in Escherichia coli strain BL21 (DE3) and purified using chitin beads according to the manufacturer's protocol. For further purification, the eluent from chitin beads was loaded on a Vydac C8 reversed phase column and subjected to HPLC using an acetonitrile gradient. Purity and identity of the peptides were confirmed by polyacrylamide gel electrophoresis (PAGE) and mass spectrometry. For the mutagenesis study of LR, the wild-type and mutant LR peptides were synthesized, purified by reverse-phase HPLC, and lyophilized to dryness at the peptide core in Boston Biomedical Research Institute.
Sedimentation velocity experiments were done on a Beckman Instruments Optima XL-I analytical ultracentrifuge equipped with Rayleigh optics. The cells were equipped with sapphire windows and 12 mm charcoal-filled Epon centerpieces. Apparent sedimentation coefficient distribution patterns were computed by the time derivative method. Peptides were dialyzed against 50 mM potassium phosphate buffer (pH 7.4) containing 100 mM KCl, and 1 mM DTT at 4°C overnight and then subjected to AUC at 50,000 rpm and 20°C. […]

[2] = molecular target: the molecule itself; assay: AUC; sedimentation velocity of each MRIP peptide alone, three-fold serial dilutions (MRIP^545-878 1.5–13.6 μM, MRIP^724-878 4.7–42.3 μM, MRIP^724-837 7.5–67.1 μM); 50 mM potassium phosphate pH 7.4, 100 mM KCl, 1 mM DTT, 50,000 rpm, 20°C; global fitting with SedAnal; constant of MRIP^724-837: dimer to monomers
[3] = AUC sedimentation velocity of MRIP peptides alone (molar mass, sedimentation coefficient, oligomeric state); type: physicochemical; settings: for molar mass: 50 mM potassium phosphate pH 7.4, 100 mM KCl, 1 mM DTT; for concentration dependence of g(s*) curves: MRIP^545-878 1.5–13.6 μM, MRIP^724-878 4.7–42.3 μM, MRIP^724-837 7.5–67.1 μM, pH 7.4, 20°C
Source text: The RMSD of the fit was 0.008.
as §1
Sedimentation velocity experiments were done on a Beckman Instruments Optima XL-I analytical ultracentrifuge equipped with Rayleigh optics. The cells were equipped with sapphire windows and 12 mm charcoal-filled Epon centerpieces. Apparent sedimentation coefficient distribution patterns were computed by the time derivative method. Peptides were dialyzed against 50 mM potassium phosphate buffer (pH 7.4) containing 100 mM KCl, and 1 mM DTT at 4°C overnight and then subjected to AUC at 50,000 rpm and 20°C. Molar mass was computed from sedimentation velocity profiles using SedAnal, which uses a nonlinear least-squares curve fitting algorithm to fit data to solutions of the differential equation (the Lamm equation) describing sedimentation. Fits were performed on time difference data to remove the time-independent systematic baseline components. Values of s and D produced by the fitting procedure were substituted into the Svedberg equation to obtain the molar mass of the protein, M: M=RT/(1−ν¯ρ)s20,wo/D20,wo where ρ is the density of the buffer and ν¯ is the partial specific volume of the protein. Sednterp was employed to compute values of ρ and ν¯ from the amino acid sequence.

[4] = test system: CCLR; assay: AUC interaction of MRIP peptides with MYPT1 peptide CCLR (residues 924–1030); type: binding; settings: equimolar mixtures (MRIP^545-878 14 μM each; MRIP^724-878 30 μM each; MRIP^724-837 67 μM each) and 3-, 9-fold dilutions, pH 7.4, 100 mM KCl, 20°C
Protocol: AUC was performed to examine the interactions of MRIP^545-878, MRIP^724-878, or MRIP^724-837 individually with the MYPT1 peptide (residues 924–1030) containing a putative coiled coil domain (CC) and the leucine repeat region (LR), designated as CCLR.
Fig 3 All MRIP peptides bind to the C-terminal region of MYPT1, CCLR (residues 924–1030). Concentration-normalized time derivative g(s*) graphs of the MRIP peptides by themselves and in equimolar mixtures: Lines, CCLR (30 μM); +, individual MRIP peptides by themselves (MRIP^545-878, 14 μM; MRIP^724-878, 50 μM; MRIP^724-837, 67 μM); black filled-in circles, original equimolar mixtures (MRIP^545-878, 14 μM each; MRIP^724-878, 30 μM each; MRIP^724-837, 67 μM each); open circles, 3-fold dilutions; gray filled-in circles, 9-fold dilutions.
as §1, with “For the mutagenesis study of LR, the wild-type and mutant LR peptides were synthesized, purified by reverse-phase HPLC, and lyophilized to dryness at the peptide core in Boston Biomedical Research Institute.” left out

[5] = AUC sedimentation velocity, pH 7.4, 100 mM KCl, 20°C

E996K: mutant LR peptide with same length as wild-type, substitutions for charged residues (ERRISKMEEELKMLPDLKADNQRLKDENGALIRVISKLSK)
main peak position of mixture with MRIP^724-878 [1]: shifted to the right, indicating binding

EtriA: mutant LR in which glutamic acid residues 998–1000 were replaced by alanine (ERRISEMAAALKMLPDLKADNQRLKDENGALIRVISKLSK)
binding affinity toward MRIP^724-878, LR mutants [1]: significantly decreased binding affinity

EtriQ: mutant LR in which glutamic acid residues 998–1000 were replaced by glutamine (ERRISEMQQQLKMLPDLKADNQRLKDENGALIRVISKLSK)
binding affinity toward MRIP^724-878, LR mutants [1]: significantly decreased binding affinity

LR^997-1030: mutant LR peptide shorter than LR in length (MEEELKMLPDLKADNQRLKDENGALIRVISKLSK)
binding affinity toward MRIP^724-878, LR mutants [1]: decreased

LR^1001-1030: mutant LR peptide shorter than LR in length (LKMLPDLKADNQRLKDENGALIRVISKLSK)
binding affinity toward MRIP^724-878, LR mutants [1]: decreased

LR^1007-1028: mutant LR peptide shorter than LR in length (LKADNQRLKDENGALIRVISKL)
binding affinity toward MRIP^724-878, LR mutants [1]: decreased

R992D/R993D: mutant LR peptide with same length as wild-type, substitutions for charged residues (EDDISEMEEELKMLPDLKADNQRLKDENGALIRVISKLSK)
main peak position of mixture with MRIP^724-878 [1]: shifted to the right, indicating binding

B1: MRIP^724-837 (myosin phosphatase-RhoA interacting protein, residues 724–837; CC2-CC3) (domain or fragment, UniProt Q6WCQ1 724-837, looked up)
chain: CERGFAAMEETHQKKIEDLQRQHQRELEKLREEKDRLLAEETAATISAIEAMKNAHREEMERELEKSQRSQISSVNSDVEALRRQYLEELQSVQRELEVLSEQYSQKCLENAHL
notes: Monomer-dimer equilibrium in solution by AUC; source: E. coli BL21 (DE3), purified (chitin beads, C8 reversed-phase HPLC)
Kd [2]: 21 µM
stoichiometry N [2]: 2

B2: MRIP^724-837: recombinant tag-free MRIP peptide, residues 724–837; CC2-CC3 (protein)
chain: B1 chain
modifications: left off: chitin-binding domain (IMPACT kit, pTYB12), N-terminal, cleaved
notes: recombinant tag-free MRIP peptide, residues 724–837; CC2-CC3
molar mass ([3]; AUC sedimentation velocity, SedAnal global fit to monomer-dimer reaction, 7.5–67.1 μM, 20°C, CL 0.95): 13.9±0.2 kDa
oligomeric state in solution [3, 5]: a mixture of monomer-dimer
sedimentation coefficient, monomer ([3]; AUC, monomer-dimer model, 7.5–67.1 μM, pH 7.4, 100 mM KCl, 20°C, CL 0.95, min, 1.23, max, 1.31): 1.29 S
sedimentation coefficient, dimer ([3]; AUC, monomer-dimer model, 7.5–67.1 μM, pH 7.4, 100 mM KCl, 20°C, CL 0.95, min, 1.88, max, 1.91): 1.90 S
concentration dependence of g(s*) curves ([3]; AUC): concentration dependence and a reversible interaction
binding to CCLR (shift in g(s*) curves) [4]: bind to CCLR

B3: MRIP^545-878: recombinant tag-free MRIP peptide, residues 545–878; CC1-CC4 (protein)
chain: WAEFRPIQQALAQERVGGVGPADTHEPLRPEAEPGELERERARRREERRKRFGMLDATDGPGTEDAALRMEVDRSPGLPMSDLKTHNVHVEIEQRWHQVETTPLREEKQVPIAPVHLSSEDGGDRLSTHELTSLLEKELEQSQKEASDLLEQNRLLQDQLRVALGREQSAREGYVLQATCERGFAAMEETHQKKIEDLQRQHQRELEKLREEKDRLLAEETAATISAIEAMKNAHREEMERELEKSQRSQISSVNSDVEALRRQYLEELQSVQRELEVLSEQYSQKCLENAHLAQALEAERQALRQCQRENQELNAHNQELNNRLAAEITRLRT
modifications: left off: chitin-binding domain (IMPACT kit, pTYB12), N-terminal, cleaved
notes: recombinant tag-free MRIP peptide, residues 545–878; CC1-CC4
molar mass ([3]; AUC sedimentation velocity, SedAnal global fit to two components (main component), 1.5–13.6 μM, 50,000 rpm, 20°C, CL 0.95, min, 38.1, max, 40.9): 39.4 kDa
sedimentation coefficient ([3]; AUC sedimentation velocity, SedAnal global fit, two components (main component), 1.5–13.6 μM, pH 7.4, 100 mM KCl, 20°C, CL 0.95): 2.17±0.01 S
oligomeric state in solution [3, 5]: forms a monomer in solution
concentration dependence of g(s*) curves ([3]; AUC): no-concentration dependence and the presence of one species in solution
binding to CCLR (shift in g(s*) curves) [4]: bind to CCLR

B4: MRIP^724-878 (myosin phosphatase-RhoA interacting protein, residues 724–878; CC2-CC4) (domain or fragment, UniProt Q6WCQ1 724-878, looked up)
chain: CERGFAAMEETHQKKIEDLQRQHQRELEKLREEKDRLLAEETAATISAIEAMKNAHREEMERELEKSQRSQISSVNSDVEALRRQYLEELQSVQRELEVLSEQYSQKCLENAHLAQALEAERQALRQCQRENQELNAHNQELNNRLAAEITRLRT
notes: Tight homodimer in solution by AUC; the forward primer puts an NdeI ATG before the codons GAGCGAGGGTTTGCAGCAATG; source: E. coli BL21 (DE3), purified (chitin beads, C8 reversed-phase HPLC)
stoichiometry N [2]: 2
